How the values were obtained:
[1] = molecular target: T1, prostate specific membrane antigen (PSMA), human (human, UniProt Q04609 1-750); assay: stated, method not described
T1 construct: whole, on cells; The target was native PSMA on LNCaP cells, in LNCaP membrane preparations (ELISA) or in frozen tissue sections (immunohistochemistry); also called human PSMA

[2] = molecular target: T1, prostate specific membrane antigen …; assay: ELISA on LNCaP membrane preparation
[3] = molecular target: T1, prostate specific membrane antigen …; assay: ELISA on LNCaP membrane preparation, purified antibody

T1 sequence (Q04609 whole entry): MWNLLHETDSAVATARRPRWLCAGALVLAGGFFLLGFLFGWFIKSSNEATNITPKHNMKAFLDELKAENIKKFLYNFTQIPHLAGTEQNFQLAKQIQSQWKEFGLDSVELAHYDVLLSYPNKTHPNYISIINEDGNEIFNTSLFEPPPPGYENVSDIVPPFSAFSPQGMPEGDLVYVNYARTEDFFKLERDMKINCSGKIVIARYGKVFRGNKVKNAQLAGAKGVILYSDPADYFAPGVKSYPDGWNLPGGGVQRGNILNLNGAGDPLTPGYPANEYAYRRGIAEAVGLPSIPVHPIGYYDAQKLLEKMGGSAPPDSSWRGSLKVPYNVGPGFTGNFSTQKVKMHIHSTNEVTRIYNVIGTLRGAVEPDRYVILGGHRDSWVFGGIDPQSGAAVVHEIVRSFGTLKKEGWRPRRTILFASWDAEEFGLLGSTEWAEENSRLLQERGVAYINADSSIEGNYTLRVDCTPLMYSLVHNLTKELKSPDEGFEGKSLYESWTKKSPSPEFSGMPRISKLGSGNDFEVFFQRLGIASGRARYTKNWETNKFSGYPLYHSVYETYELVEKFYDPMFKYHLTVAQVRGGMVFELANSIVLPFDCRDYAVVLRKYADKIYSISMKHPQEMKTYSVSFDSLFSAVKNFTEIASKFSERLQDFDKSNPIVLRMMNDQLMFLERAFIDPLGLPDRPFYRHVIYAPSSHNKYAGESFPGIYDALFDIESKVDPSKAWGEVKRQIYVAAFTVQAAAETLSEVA

B1: murine monoclonal antibody E99 (hybridoma ATCC HB-12101) (antibody, mouse IgG3, V domains shown)
VH: QVQLKESGPGLVASSQSLSITCTVSGFSLTAYGINWVRQPPGKGLEWLGVIWPDGNTDYNSTLKSRLNIFKDNSKNQVFLKMSSFQTDDTARYFCARDSYGNFKRGWFDFWGQGTTLTVSS
VL: NIVMTQSQKFMSTSPGDRVRVTCKASQNVGSDVAWYQAKPGQSPRILIYSTSYRYSGVPDRFTAYGSGTDFTLTITNVQSEDLTEYFCQQYNSYPLTFGAGTKLELK
notes: also called murine E99
B1: binds [1].

B2: murine monoclonal antibody J533 (hybridoma ATCC HB-12127) (antibody, mouse IgG1, V domains shown)
VH: EVQLQQSGPELVKPGASVKMSCKASGYTFTGYVMHWVKQKPGQVLEWIGYINPYNDVTRYNGKFKGKATLTSDKYSSTAYMELSGLTSEDSAVYYCARGENWYYFDSWGRGATLTVSS
VL: DIVLTQSPASLAVSLGQRATISCRASESIDSYDNTFMHWYQQKPGQPPNLLIFRASILESGIPARFSGSGSGTDFTLTIYPVEADDVATYYCHQSIEDPYTFGGGTKLEIK
notes: also called murine J533
B2: binds [1].

B3: deimmunized J415 antibody composed of heavy chain version 4 (J415DIVH4) and light chain version 5 (J415DIVK5) (antibody, V domains shown)
VH: EVKLEESGGGLVQPGGSMKISCVASGFTFSNYWMNWVRQSPEKGLEWVAEIRSQSNNFATHYAESVKGRVIISRDDSKSSVYLQMNSLRAEDTAVYYCTRRWNNFWGQGTTVTVSS
VL: NIVMTQFPKSMSASAGERMTLTCKASENVGTYVSWYQQKPTQSPKMLIYGASNRFTGVPDRFSGSGSGTDFILTISSVQAEDLVDYYCGQSYTFPYTFGGGTKLEMK
notes: also called DIVH4/DIVK5; deJ415
B3: binds [2].

B4: murine monoclonal antibody J415 (hybridoma ATCC HB-12109) (antibody, mouse IgG1, V domains shown)
VH: EVKLEESGGGLVQPGGSMKLSCVASGFTFSNYWMNWVRQSPEKGLEWVAEIRSQSNNFATHYAESVKGRVIISRDDSKSSVYLQMNNLRAEDTGIYYCTRRWNNFWGQGTTLTVSS
VL: NIVMTQFPKSMSISVGERVTLTCKASENVGTYVSWYQQKPEQSPKMLIYGASNRFTGVPDRFTGSGSATDFILTISSVQTEDLVDYYCGQSYTFPYTFGGGTKLEMK
notes: also called murine J415
B4: binds [1].

B5: deimmunized J415 antibody composed of heavy chain version 1 (J415DIVH1) and light chain version 5 (J415DIVK5) (antibody, V domains shown)
VH: EVKLEESGGGLVQPGGSMKISCKASGFTFSNYWMNWVRQTPEKGLEWVALIRSQSNNFATHYAESVKGRVIISRDDSKSSVYLQMNSLRAEDTAVYYCTRRWNNFWGQGTTVTVSS
VL: NIVMTQFPKSMSASAGERMTLTCKASENVGTYVSWYQQKPTQSPKMLIYGASNRFTGVPDRFSGSGSGTDFILTISSVQAEDLVDYYCGQSYTFPYTFGGGTKLEMK
notes: also called DIVK5 combined with heavy chain version 1; J415DIVH1 + J415DIVK5
In the case of B5, the “fold less binding than the chimeric J415 antibody” value [3] is reported as 2 fold.

B6: J415 chimeric antibody (murine variable heavy and light chain regions fused to human constant heavy and light chain regions) (antibody, V domains shown)
VH: EVKLEESGGGLVQPGGSMKLSCVASGFTFSNYWMNWVRQSPEKGLEWVAEIRSQSNNFATHYAESVKGRVIISRDDSKSSVYLQMNNLRAEDTGIYYCTRRWNNFWGQGTTLTVSS
VL: NIVMTQFPKSMSISVGERVTLTCKASENVGTYVSWYQQKPEQSPKMLIYGASNRFTGVPDRFTGSGSATDFILTISSVQTEDLVDYYCGQSYTFPYTFGGGTKLEMK
notes: also called the chimeric
B6: binds [2].

B7: deimmunized J415 antibody composed of heavy chain version 2 (J415DIVH2) and light chain version 5 (J415DIVK5) (antibody, V domains shown)
VH: EVKLEESGGGLVQPGGSMKISCVASGFTFSNYWMNWVRQTPEKGLEWVALIRSQSNNFATHYAESVKGRVIISRDDSKSSVYLQMNSLRAEDTAVYYCTRRWNNFWGQGTTVTVSS
VL: NIVMTQFPKSMSASAGERMTLTCKASENVGTYVSWYQQKPTQSPKMLIYGASNRFTGVPDRFSGSGSGTDFILTISSVQAEDLVDYYCGQSYTFPYTFGGGTKLEMK
notes: also called DIVK5 combined with heavy chain version 2; J415DIVH2 + J415DIVK5
For B7, the “fold less binding than the chimeric J415 antibody” value [3] was 2 fold.

From US20030161832A1 (CORNELL RESEARCH FOUNDATION, published 2003)
